Experimental findings from the supplement of paper PMC10567573 are described below.

The chains are these.
B1: KRT18 (parent)
chain: PQVRDWSHYFKIIEDLRAQIFANT
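Further: lentivirally expressed fusions sorted by FACS into six bins by GFP to DsRed ratio, PSI derived from sequencing read proportions per bin multiplied by bin number.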

Variants of B1 are the subject of the data set. Nature of the data set: protein stability index of a GFP-peptide fusion (GPS, HEK-293T) (PSI 1-6); higher = more stable. The following applies: c terminus: a fixed tail appended.
On to PQVRDTSHYFKIIEDLRAQIFANT [W6T], for which the protein stability index is 3.16. Under PQVRDMSHYFKIIEDLRAQIFANT [W6M] stands 2.15. Consider PQVRDRSHYFKIIEDLRAQIFANT [W6R], for which the protein stability index was determined as 2.13.

For PQVRDYSHYFKIIEDLRAQIFANT [W6Y], the protein stability index is 2.13. For the variant PQVRDSSHYFKIIEDLRAQIFANT [W6S], the protein stability index is 2.14.

In the case of PQVRDNSHYFKIIEDLRAQIFANT [W6N], the protein stability index stood at 2.18. Turning to PQVRDKSHYFKIIEDLRAQIFANT [W6K], the protein stability index was 1.97. With PQVRDWSEYFKIIEDLRAQIFANT [H8E], the protein stability index stood at 2.49. With PQVRDWSLYFKIIEDLRAQIFANT [H8L], the protein stability index came out at 2.43. In the case of PQVRDWSYYFKIIEDLRAQIFANT [H8Y], the protein stability index amounted to 2.08. For the variant PQVRDWSMYFKIIEDLRAQIFANT [H8M], the protein stability index is 2.28. In the case of PQVRDWSQYFKIIEDLRAQIFANT [H8Q], the protein stability index was found to be 1.83. As for PQVRDWSWYFKIIEDLRAQIFANT [H8W], the protein stability index worked out at 1.34. As for PQVRDWSGYFKIIEDLRAQIFANT [H8G], the protein stability index amounted to 2.58.

As for PQVRDWSAYFKIIEDLRAQIFANT [H8A], the protein stability index stood at 2.06. For the variant PQVRDWSSYFKIIEDLRAQIFANT [H8S], the protein stability index was 2.23. Take PQVRDWSTYFKIIEDLRAQIFANT [H8T]: the protein stability index is 1.6. In the case of PQVRDWSDYFKIIEDLRAQIFANT [H8D], the protein stability index turned out to be 1.92. In the case of PQVRDWSPYFKIIEDLRAQIFANT [H8P], the protein stability index came to 1.83.

For PQVRDWSNYFKIIEDLRAQIFANT [H8N], the protein stability index was 2.24. Consider PQVRDWSVYFKIIEDLRAQIFANT [H8V], for which the protein stability index came to 2.17. In the case of PQVRDWSFYFKIIEDLRAQIFANT [H8F], the protein stability index turned out to be 1.59.

On to PQVRDWSIYFKIIEDLRAQIFANT [H8I], for which the protein stability index was found to be 2.4.

For the variant PQVRDWSKYFKIIEDLRAQIFANT [H8K], the protein stability index was 2.59. On to PQVRDWSCYFKIIEDLRAQIFANT [H8C], for which the protein stability index stood at 1.78.

As to PQVRDWSRYFKIIEDLRAQIFANT [H8R], the protein stability index was 1.98.

Turning to PQVRDWRHYFKIIEDLRAQIFANT [S7R], the protein stability index was 1.99. Take PQVRDWEHYFKIIEDLRAQIFANT [S7E]: the protein stability index turned out to be 2.12. Under PQVRDWQHYFKIIEDLRAQIFANT [S7Q] stands 3.49. With PQVRDWAHYFKIIEDLRAQIFANT [S7A], the protein stability index came to 2.53.

With PQVRDWIHYFKIIEDLRAQIFANT [S7I], the protein stability index amounted to 2.13. PQVRDWKHYFKIIEDLRAQIFANT [S7K]: the protein stability index amounted to 2.36. For the variant PQVRDWNHYFKIIEDLRAQIFANT [S7N], the protein stability index is 2.08. Consider PQVRDWPHYFKIIEDLRAQIFANT [S7P], for which the protein stability index is 2.23. Turning to PQVRDWFHYFKIIEDLRAQIFANT [S7F], the protein stability index is 1.41. Regarding PQVRDWGHYFKIIEDLRAQIFANT [S7G], the protein stability index is 3.02. Under PQVRDWTHYFKIIEDLRAQIFANT [S7T] stands 2.82. For the variant PQVRDWLHYFKIIEDLRAQIFANT [S7L], the protein stability index stood at 1.52. Consider PQVRDWCHYFKIIEDLRAQIFANT [S7C], for which the protein stability index amounted to 1.94. Take PQVRDWVHYFKIIEDLRAQIFANT [S7V]: the protein stability index was 2.53. In the case of PQVRDWWHYFKIIEDLRAQIFANT [S7W], the protein stability index amounted to 1.95. For PQVRDWHHYFKIIEDLRAQIFANT [S7H], the protein stability index turned out to be 2.36. To PQVRDWYHYFKIIEDLRAQIFANT [S7Y] belongs 1.61.

As for PQVRDWMHYFKIIEDLRAQIFANT [S7M], the protein stability index is 2.18. To PQVRDWSHNFKIIEDLRAQIFANT [Y9N] belongs 2.71; to PQVRDWSHGFKIIEDLRAQIFANT [Y9G], 1.75. In the case of PQVRDWSHPFKIIEDLRAQIFANT [Y9P], the protein stability index came out at 2.36.

Take PQVRDWSHHFKIIEDLRAQIFANT [Y9H]: the protein stability index is 2.5. Under PQVRDWSHSFKIIEDLRAQIFANT [Y9S] stands 2.56.

As to PQVRDWSHLFKIIEDLRAQIFANT [Y9L], the protein stability index was 2.17. Take PQVRDWSHCFKIIEDLRAQIFANT [Y9C]: the protein stability index came out at 1.97.

As to PQVRDWSHTFKIIEDLRAQIFANT [Y9T], the protein stability index is 1.81. Regarding PQVRDWSHDFKIIEDLRAQIFANT [Y9D], the protein stability index was 2.95. For the variant PQVRDWSHEFKIIEDLRAQIFANT [Y9E], the protein stability index came to 2.55. Turning to PQVRDWSHWFKIIEDLRAQIFANT [Y9W], the protein stability index was determined as 2.5. As to PQVRDWSHIFKIIEDLRAQIFANT [Y9I], the protein stability index stood at 2.12.

As for PQVRDWSHFFKIIEDLRAQIFANT [Y9F], the protein stability index came out at 1.94. For PQVRDWSHQFKIIEDLRAQIFANT [Y9Q], the protein stability index worked out at 2.42. Consider PQVRDWSHRFKIIEDLRAQIFANT [Y9R], for which the protein stability index was 2.25. PQVRDWSHMFKIIEDLRAQIFANT [Y9M]: the protein stability index came out at 1.89. Turning to PQVRDWSHKFKIIEDLRAQIFANT [Y9K], the protein stability index was determined as 1.76. As to PQVRDWSHVFKIIEDLRAQIFANT [Y9V], the protein stability index was 2.48. As to PQVRDWSHAFKIIEDLRAQIFANT [Y9A], the protein stability index came out at 2.24.

PWVRDWSHYFKIIEDLRAQIFANT [Q2W]: the protein stability index is 1.82.

For PDVRDWSHYFKIIEDLRAQIFANT [Q2D], the protein stability index turned out to be 2.04. In the case of PCVRDWSHYFKIIEDLRAQIFANT [Q2C], the protein stability index is 2.67. In the case of PFVRDWSHYFKIIEDLRAQIFANT [Q2F], the protein stability index was 2.55. Turning to PHVRDWSHYFKIIEDLRAQIFANT [Q2H], the protein stability index turned out to be 2.17. Consider PRVRDWSHYFKIIEDLRAQIFANT [Q2R], for which the protein stability index stood at 1.77. PNVRDWSHYFKIIEDLRAQIFANT [Q2N]: the protein stability index worked out at 2.41. Regarding PAVRDWSHYFKIIEDLRAQIFANT [Q2A], the protein stability index was 2.59. As for PGVRDWSHYFKIIEDLRAQIFANT [Q2G], the protein stability index turned out to be 2.29. With PEVRDWSHYFKIIEDLRAQIFANT [Q2E], the protein stability index turned out to be 2.63. Under PKVRDWSHYFKIIEDLRAQIFANT [Q2K] stands 2.08; under PMVRDWSHYFKIIEDLRAQIFANT [Q2M], 3.56; under PVVRDWSHYFKIIEDLRAQIFANT [Q2V], 3.24.

On to PLVRDWSHYFKIIEDLRAQIFANT [Q2L], for which the protein stability index was 3.67. Consider PPVRDWSHYFKIIEDLRAQIFANT [Q2P], for which the protein stability index was found to be 3.51. Take PYVRDWSHYFKIIEDLRAQIFANT [Q2Y]: the protein stability index was 2.34.

In the case of PSVRDWSHYFKIIEDLRAQIFANT [Q2S], the protein stability index was 2.42. On to PTVRDWSHYFKIIEDLRAQIFANT [Q2T], for which the protein stability index was 2.31. As for PIVRDWSHYFKIIEDLRAQIFANT [Q2I], the protein stability index turned out to be 2.92. Consider PQVRDWSHYDKIIEDLRAQIFANT [F10D], for which the protein stability index was found to be 1.9.

As to PQVRDWSHYGKIIEDLRAQIFANT [F10G], the protein stability index was 2.4. As for PQVRDWSHYMKIIEDLRAQIFANT [F10M], the protein stability index is 2.56.

Turning to PQVRDWSHYCKIIEDLRAQIFANT [F10C], the protein stability index was 2.25. To PQVRDWSHYHKIIEDLRAQIFANT [F10H] belongs 2.57. To PQVRDWSHYAKIIEDLRAQIFANT [F10A] belongs 2.29.

PQVRDWSHYKKIIEDLRAQIFANT [F10K]: the protein stability index amounted to 1.86. With PQVRDWSHYPKIIEDLRAQIFANT [F10P], the protein stability index is 3.18. Under PQVRDWSHYNKIIEDLRAQIFANT [F10N] stands 1.89. Turning to PQVRDWSHYEKIIEDLRAQIFANT [F10E], the protein stability index was determined as 2.26. As to PQVRDWSHYIKIIEDLRAQIFANT [F10I], the protein stability index amounted to 2.23.

PQVRDWSHYLKIIEDLRAQIFANT [F10L]: the protein stability index was 2.17.
